In patent US20110105397A1, “METHOD FOR TREATING HEART FAILURE WITH STRESSCOPIN-LIKE PEPTIDES” (priority 2009, published 2011):
Where a chain is given by its changes, count along the chain named. One block for each molecule: values may come before it. Where a SMILES comes first, the peptide text is derived from it. Where no end group is shown, it is not given here. The star is where a group is joined. Succinimide(1-Et,3-yl) = CCN1C(=O)CC(*)C1=O

What was measured:
[1] = target: T1, human CRHR2 (Homo sapiens, UniProt Q13324); test: cAMP assay, h-CRHR2 transfected SK-N-MC cells; format: cell-based; conditions: Table 13; for EC50: cysteine mutation, N-ethylmaleimide capping, pegylation, read-out: pA50 (converted); for Log DR [M]: h-SCP control pA50 minus test compound pA50 within the same assay batch
T1 construct: expressed in transfected cells
T1 sequence (Q13324 1-411): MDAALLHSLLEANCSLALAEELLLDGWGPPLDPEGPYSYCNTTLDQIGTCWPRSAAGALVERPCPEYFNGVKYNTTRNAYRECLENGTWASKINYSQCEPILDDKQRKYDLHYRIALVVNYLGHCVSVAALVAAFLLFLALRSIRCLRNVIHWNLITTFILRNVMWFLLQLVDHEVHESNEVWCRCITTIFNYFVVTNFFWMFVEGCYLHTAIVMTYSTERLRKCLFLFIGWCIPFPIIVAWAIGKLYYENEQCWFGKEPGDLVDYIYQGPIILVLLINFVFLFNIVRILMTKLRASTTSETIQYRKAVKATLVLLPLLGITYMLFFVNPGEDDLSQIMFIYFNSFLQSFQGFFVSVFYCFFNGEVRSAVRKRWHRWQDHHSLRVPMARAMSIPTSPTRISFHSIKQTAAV
Procedure: The concentration required for 50% maximum effect (A50) was 0.4 nM.
Human CRHR1 (accession number X72304) or CRHR2 (accession number U34587) were cloned into pcDNA3.1/Zeo expression vector and stably transfected into SK—N-MC cells by electroporation. Cells were maintained in MEM w/Earl's Salt with 10% FBS, 50 I.U. penicillin, 50 μg/ml streptomycin, 2 mM L-glutamine, 1 mM sodium pyruvate and 0.1 mM non-essential amino acids, 600 μg/ml G418. Cells were grown at 37° C. in 5% CO2
Cells were plated in 96-well tissue culture dishes (Biocoat from BD Biosciences) overnight at 50,000 cell/well. Cells were washed with PBS then resuspended in DMEM F-12 without phenol red, containing 10 μM isobutylmethylxanthine (IBMX). Cells were incubated with the peptides at concentrations ranging from 1 pM to 10 μM for 60 min at 37° Celsius. […] Forskolin (10 μM), a direct stimulant of adenylate cyclase, was used as positive control. The assays were stopped by the addition of 0.5 M HCl and mixing by orbital rotation for 2 h at 4° Celsius.
To assess the activity of the inventive polypeptide at the CRHR2, an intracellular cAMP measurement test using a Flash plate radioactive assay (Catalog No. Cus56088; Perkin Elmer, Mass., U.S.A.) was employed.
Transfected SK—N-MC cells were plated in 96-well Biocoat tissue culture dishes (BD Biosciences, San Jose, Calif., U.S.A) overnight at 50,000 cell/well. Cells were first washed with PBS and then suspended with DMEM/F-12 without phenol red, containing […]. Suspended cells were transferred into a 96-well flash plate coated with scintillant fluid. Cells were incubated with peptides ranging from 1 pM to 1 μM, for 60 min, at 37° Celsius. Forskolin at 10 μM was used as positive control. After ligand stimulation, cells were lysed by the addition of 0.5M HCl and mixed by orbital rotation for 2 h at 4° Celsius in order to release intracellular cAMP into the media.
Media containing released intracellular cAMP was transferred to a 96-well flash plate coated with scintillant fluid containing an anti-cAMP antibody. In this assay, intracellular cAMP competes with ^125I-labeled cAMP binding to the antibody. To generate a standard curve, cAMP ranging from 2.5 to 250 pmoles/ml was included in the experiment. [^125I]-cAMP was measured on a TopCount scintillation counter (Perkin Elmer, Mass., U.S.A).
Individual agonist concentration-response curve data were fitted to the Hill equation, see formula below, using GraphPad Prism (Graphpad Software, La Jolla, Calif., U.S.A.), to provide estimates of agonist concentration needed to generate one-half maximal response (A50), and the maximal asymptote (α) and Hill slope (nH) parameters. In this equation, [A] is the agonist concentration and E is the measured effect:
For display purposes the mean fitted parameter estimates were used to generate a single E/[A] curve shown superimposed on the mean experimental data. Potency estimates for agonists, pA50, are expressed as the negative logarithm of the midpoint of each curve and listed with their standard error of measurement (SEM). Logarithm base 10 of the agonist dose ratio (Log DR) values were calculated by subtraction of the test compound pA50 value from the corresponding h-SCP (SEQ ID NO:1) control pA50 value within the same assay batch. The SEM values of the Log DR values are given by the square root of the sum of the squared SEM values of the h-SCP (SEQ ID NO:1) control and test compound pA50 values.
Human and rat peptides (see Table 10) were used on the stimulation of h-CRHR1 or h-CRHR2 transfected SK—N-MC cells in the cAMP flash plate assay. Peptides were incubated for 1 hr at 37° Celsius. Curves were calculated using non-linear regression sigmoidal concentration-response analysis calculation in GraphPad Prism. The so obtained pA50 values are shown in Table 11 in addition to literature values. […]

[2] = target: T2, human corticotrophin releasing hormone receptor type 2 (CRHR2) (human, UniProt Q13324 1-411); test: cell-based or functional assay
T2 sequence (looked up): T1 sequence (Q13324 1-411)

B1: Cys-variant stresscopin-like peptide SEQ ID NO: 18 (peptide)
peptide: TKFTLSLDVPTNIMNLCFNIAKAKNLRAQAAANAHLMAQI-NH2
- Log DR [2]: 1.11 log10
- pA50 [2]: 8.41 -log10(M)

B2: Cys-variant stresscopin-like peptide SEQ ID NO: 10 (peptide)
peptide: TKFTLSLDCPTNIMNLLFNIAKAKNLRAQAAANAHLMAQI-NH2
- Log DR [2]: 1.3 log10
- pA50 [2]: 8.28 -log10(M)

B3: Pegylated Cys-variant stresscopin-like peptide with NES linker and PEG about 20 kDa SEQ ID NO: 62 (peptide)
peptide: TKFTLSLCVPTNIMNLLFNIAKAKNLRAQAAANAHLMAQI
modifications: NES-PEG (about 20 kDa) on Cys 8; C-terminal amide (-NH2)
- Log DR [2]: > 3.48 log10
- pA50 [2]: ~6.06 -log10(M)

B4: Pegylated Cys-variant stresscopin-like peptide with NES linker and PEG about 20 kDa SEQ ID NO: 63 (peptide)
peptide: B3 peptide with C8D, V9C
modifications: NES-PEG (about 20 kDa) on Cys 9; C-terminal amide (-NH2)
- Log DR [2]: ~2.12 log10
- pA50 [2]: ~7.45 -log10(M)

B7: Pegylated Cys-variant stresscopin-like peptide with NES linker and PEG about 20 kDa SEQ ID NO: 66 (peptide)
peptide: B3 peptide with C8D, N12C
modifications: NES-PEG (about 20 kDa) on Cys 12; C-terminal amide (-NH2)
- Log DR [2]: 1.26 log10
- pA50 [2]: 8.31 -log10(M)

B9: Pegylated Cys-variant stresscopin-like peptide with NES linker and PEG about 20 kDa SEQ ID NO: 64 (peptide)
peptide: B3 peptide with C8D, P10C
modifications: NES-PEG (about 20 kDa) on Cys 10; C-terminal amide (-NH2)
- Log DR [2]: ~2.59 log10
- pA50 [2]: ~6.98 -log10(M)

B10: Pegylated Cys-variant stresscopin-like peptide with NES linker and PEG about 20 kDa SEQ ID NO: 67 (peptide)
peptide: B3 peptide with C8D, I13C
modifications: NES-PEG (about 20 kDa) on Cys 13; C-terminal amide (-NH2)
- Log DR [2]: > 3 log10
- pA50 [2]: ~6.35 -log10(M)

B11: Pegylated Cys-variant stresscopin-like peptide with NES linker and PEG about 20 kDa SEQ ID NO: 65 (peptide)
peptide: B3 peptide with C8D, T11C
modifications: NES-PEG (about 20 kDa) on Cys 11; C-terminal amide (-NH2)
- Log DR [2]: ~2.75 log10
- pA50 [2]: ~6.82 -log10(M)

B12: Cys-variant stresscopin-like peptide SEQ ID NO: 16 (peptide)
peptide: TKFTLSLDVPTNIMCLLFNIAKAKNLRAQAAANAHLMAQI-NH2
- Log DR [2]: 0.76 log10
- pA50 [2]: 8.93 -log10(M)

B13: Cys-variant stresscopin-like peptide SEQ ID NO: 13 (peptide)
peptide: TKFTLSLDVPTCIMNLLFNIAKAKNLRAQAAANAHLMAQI-NH2
- Log DR [2]: -0.01 log10
- pA50 [2]: 9.59 -log10(M)

B14: Cys-variant stresscopin-like peptide SEQ ID NO: 11 (peptide)
peptide: TKFTLSLDVCTNIMNLLFNIAKAKNLRAQAAANAHLMAQI-NH2
- Log DR [2]: 0.82 log10
- pA50 [2]: 8.76 -log10(M)

B15: Cys-variant stresscopin-like peptide SEQ ID NO: 12 (peptide)
peptide: TKFTLSLDVPCNIMNLLFNIAKAKNLRAQAAANAHLMAQI-NH2
- Log DR [2]: 1.72 log10
- pA50 [2]: 7.86 -log10(M)

B16: Cys-variant stresscopin-like peptide SEQ ID NO: 15 (peptide)
peptide: TKFTLSLDVPTNICNLLFNIAKAKNLRAQAAANAHLMAQI-NH2
- Log DR [2]: 0.9 log10
- pA50 [2]: 8.68 -log10(M)

B17: Cys-variant stresscopin-like peptide SEQ ID NO: 17 (peptide)
peptide: TKFTLSLDVPTNIMNCLFNIAKAKNLRAQAAANAHLMAQI-NH2
- Log DR [2]: 0.02 log10
- pA50 [2]: 9.5 -log10(M)

B18: Cys-variant stresscopin-like peptide SEQ ID NO: 14 (peptide)
peptide: TKFTLSLDVPTNCMNLLFNIAKAKNLRAQAAANAHLMAQI-NH2
- Log DR [2]: > 2 log10
- pA50 [2]: ~7.34 -log10(M)

The remaining lines, values ahead:

- EC50 [1]: 0.000331 µM
- Log DR [M] [1]: −0.01
Molecule: CC[C@H](C)[C@H](NC(=O)[C@H](CCC(N)=O)NC(=O)[C@H](C)NC(=O)[C@H](CCSC)NC(=O)[C@H](CC(C)C)NC(=O)[C@H](Cc1c[nH]cn1)NC(=O)[C@H](C)NC(=O)[C@H](CC(N)=O)NC(=O)[C@H](CSC1CC(=O)N(CC)C1=O)NC(=O)[C@H](C)NC(=O)[C@H](C)NC(=O)[C@H](CCC(N)=O)NC(=O)[C@H](C)NC(=O)[C@H](CCCNC(=N)N)NC(=O)[C@H](CC(C)C)NC(=O)[C@H](CC(N)=O)NC(=O)[C@H](CCCCN)NC(=O)[C@H](C)NC(=O)[C@H](CCCCN)NC(=O)[C@H](C)NC(=O)[C@@H](NC(=O)[C@H](CC(N)=O)NC(=O)[C@H](Cc1ccccc1)NC(=O)[C@H](CC(C)C)NC(=O)[C@H](CC(C)C)NC(=O)[C@H](CC(N)=O)NC(=O)[C@H](CCSC)NC(=O)[C@@H](NC(=O)[C@H](CC(N)=O)NC(=O)[C@@H](NC(=O)[C@@H]1CCCN1C(=O)[C@@H](NC(=O)[C@H](CC(=O)O)NC(=O)[C@H](CC(C)C)NC(=O)[C@H](CO)NC(=O)[C@H](CC(C)C)NC(=O)[C@@H](NC(=O)[C@H](Cc1ccccc1)NC(=O)[C@H](CCCCN)NC(=O)[C@@H](N)[C@@H](C)O)[C@@H](C)O)C(C)C)[C@@H](C)O)[C@@H](C)CC)[C@@H](C)CC)C(N)=O (stereo partly drawn) [SEQ ID NO: 45, TKFTLSLDVPTNIMNLLFNIAKAKNLRAQAAC(-NES)NAH LMAQI-NH2] (H-TKFTLSLDVPTNIMNLLFNIAKAKNLRAQAAC(Succinimide(1-Et,3-yl))NAHLMAQI-NH2; N-terminus assumed)

- EC50 [1]: ~0.214 µM
- Log DR [M] [1]: >2.95
Molecule: TKFTLSLDVPTNIMNLLFNIAKAKNLRAQAAANAHLCAQI-NH2 [SEQ ID NO: 38, TKFTLSLDVPTNIMNLLFNIAKAKNLRAQAAANAHLCAQI-NH2]

- EC50 [1]: 0.0138 µM
- Log DR [M] [1]: 1.72
Molecule: TKFTLSLDVPCNIMNLLFNIAKAKNLRAQAAANAHLMAQI-NH2 [SEQ ID NO: 12, TKFTLSLDVPCNIMNLLFNIAKAKNLRAQAAANAHLMAQI-NH2]

- EC50 [1]: 0.0355 µM
- Log DR [M] [1]: 2.07
Molecule: TKFTLSLDVPTNIMNLLFNIAKAKNLRAQAAANAHLMAQC-NH2 [SEQ ID NO: 41, TKFTLSLDVPTNIMNLLFNIAKAKNLRAQAAANAHLMAQC-NH2]

- EC50 [1]: ~0.479 µM
- Log DR [M] [1]: >3.19
Molecule: TKFTLSLDVPTNIMNLLFNIAKAKNLRAQAAACAHLMAQI-NH2 [SEQ ID NO: 34, TKFTLSLDVPTNIMNLLFNIAKAKNLRAQAAACAHLMAQI-NH2]

- EC50 [1]: 0.000851 µM
- Log DR [M] [1]: 0.61
Molecule: TKFTCSLDVPTNIMNLLFNIAKAKNLRAQAAANAHLMAQI-NH2 [SEQ ID NO: 6, TKFTCSLDVPTNIMNLLFNIAKAKNLRAQAAANAHLMAQI-NH2]

- Log DR [2]: 2.09 log10
- pA50 [2]: 7.45 -log10(M)
B5: Pegylated Cys-variant stresscopin-like peptide with NES linker and PEG about 20 kDa SEQ ID NO: 69 (peptide)
peptide: B3 peptide with C8D, N15C
modifications: NES-PEG (about 20 kDa) on Cys 15; C-terminal amide (-NH2)

- Log DR [2]: ~2.07 log10
- pA50 [2]: ~7.34 -log10(M)
B6: Pegylated Cys-variant stresscopin-like peptide with NES linker and PEG about 20 kDa SEQ ID NO: 70 (peptide)
peptide: B3 peptide with C8D, L16C
modifications: NES-PEG (about 20 kDa) on Cys 16; C-terminal amide (-NH2)

- Log DR [2]: ~2.61 log10
- pA50 [2]: ~6.96 -log10(M)
B8: Pegylated Cys-variant stresscopin-like peptide with NES linker and PEG about 20 kDa SEQ ID NO: 68 (peptide)
peptide: B3 peptide with C8D, M14C
modifications: NES-PEG (about 20 kDa) on Cys 14; C-terminal amide (-NH2)
